Data reported in paper PMC4182348 (PLoS ONE, 2014).

Columns and labels:
[1] = target: tetanus toxin fragment C of the heavy chain; test: ELISA; conditions: one partner purified
[2] = target: T1, tetanus toxin light chain (Clostridium tetani, strain  …, UniProt P04958); test: ELISA; conditions: one partner purified
T1 construct: source: bought: List Biological Laboratories
T1 sequence (P04958 1-457): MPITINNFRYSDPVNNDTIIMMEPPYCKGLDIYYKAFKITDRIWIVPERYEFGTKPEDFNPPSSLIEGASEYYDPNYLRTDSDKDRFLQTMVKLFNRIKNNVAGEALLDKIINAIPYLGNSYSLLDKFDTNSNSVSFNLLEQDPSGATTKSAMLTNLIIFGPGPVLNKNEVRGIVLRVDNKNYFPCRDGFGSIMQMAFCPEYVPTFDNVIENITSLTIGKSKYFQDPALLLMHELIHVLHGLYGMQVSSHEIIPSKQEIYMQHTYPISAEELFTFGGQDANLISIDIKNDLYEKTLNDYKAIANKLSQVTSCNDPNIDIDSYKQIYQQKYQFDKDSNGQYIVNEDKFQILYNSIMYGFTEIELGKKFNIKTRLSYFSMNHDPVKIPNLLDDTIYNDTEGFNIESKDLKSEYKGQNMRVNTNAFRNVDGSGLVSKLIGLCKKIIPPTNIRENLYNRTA

Sequence of tetanus toxin fragment C of the heavy chain (P04958 865-1315 limits assumed): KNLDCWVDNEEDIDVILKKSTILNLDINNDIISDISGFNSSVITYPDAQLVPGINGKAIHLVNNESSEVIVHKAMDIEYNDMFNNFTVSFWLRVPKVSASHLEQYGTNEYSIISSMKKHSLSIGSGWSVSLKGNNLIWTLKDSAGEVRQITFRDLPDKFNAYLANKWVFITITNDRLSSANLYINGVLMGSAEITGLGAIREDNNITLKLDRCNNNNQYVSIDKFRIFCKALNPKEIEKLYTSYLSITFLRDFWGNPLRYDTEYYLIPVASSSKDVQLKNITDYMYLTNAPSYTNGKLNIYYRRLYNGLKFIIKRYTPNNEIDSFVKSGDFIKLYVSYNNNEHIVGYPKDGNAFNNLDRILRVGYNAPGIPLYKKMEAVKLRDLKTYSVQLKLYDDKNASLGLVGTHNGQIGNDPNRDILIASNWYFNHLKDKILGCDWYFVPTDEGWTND

B1: anti-TT mAb of hybridoma 24 (antibody, V domains shown)
VH: VQLQQTGPGLVQPSQSLSITCTVSAFSLTNYGIHWVRQSPGKGLEWLGVIWTGGSTDYNAPFISRLSISKDNSKSQVFFKMNSLQANDTAIYYCVRDGYRVMDYWGQGTSVTVSS
VL: LSASVGETVTITCRASGNIHNYLAWYQQKQGKSPQLLVYNAKTLTDGVPSRFSGSGSGTQHSLKINSLQPEDFGSYYCQHFWTIPWTFGGGTKLEIK
B1: binds [1]; no binding [2].

B2: anti-TT mAb of hybridoma 14 (antibody, V domains shown)
VH: VQLQESGPGLVAPSQSLSITCTVSGFSLTSYGVHWVRQPPGKGLEWLGVIWPGGSTNYNSALMSRLSISQDNSKSQVFLKMNSLQIDDTAMYHCARDFQYGNYFDYWGQGTSLTVSS
VL: MPASPGEKITITCSASSSISSNYLHWYQQKPGFSPKLLIYRTSNLASGVPARFSGSGSGTSYSLTVGTMEAEDVATYYCQQGTSIPTFGAGTKLELK
B2: no binding [1]; no binding [2].
